Source: article PMC11392913

Target: H. pylori PflB_(Δ140), the periplasmic α-helical domain of paralyzed flagellum protein B (Helicobacter pylori (strain SS1))
Test: SEC; Superdex 200 10/300 GL, 20 mM Tris-HCl pH 8.0, 150 mM NaCl, 10% glycerol, 4 CMC LDAO; mass from a calibration with globular standards

H. pylori PflB_(Δ140), the periplasmic α-helical domain of paralyzed flagellum protein B (domain or fragment)
stoichiometry N: > 4
